Measured values from IntAct's records for PubMed 12810663.

B1: DNA mismatch repair protein Mlh1 (Homo sapiens), P40692 (parent)
chain: MSFVAGVIRRLDETVVNRIAAGEVIQRPANAIKEMIENCLDAKSTSIQVIVKEGGLKLIQIQDNGTGIRKEDLDIVCERFTTSKLQSFEDLASISTYGFRGEALASISHVAHVTITTKTADGKCAYRASYSDGKLKAPPKPCAGNQGTQITVEDLFYNIATRRKALKNPSEEYGKILEVVGRYSVHNAGISFSVKKQGETVADVRTLPNASTVDNIRSIFGNAVSRELIEIGCEDKTLAFKMNGYISNANYSVKKCIFLLFINHRLVESTSLRKAIETVYAAYLPKNTHPFLYLSLEISPQNVDVNVHPTKHEVHFLHEESILERVQQHIESKLLGSNSSRMYFTQTLLPGLAGPSGEMVKSTTSLTSSSTSGSSDKVYAHQMVRTDSREQKLDAFLQPLSKPLSSQPQAIVTEDKTDISSGRARQQDEEMLELPAPAEVAAKNQSLEGDTTKGTSEMSEKRGPTSSNPRKRHREDSDVEMVEDDSRKEMTAACTPRRRIINLTSVLSLQEEINEQGHEVLREMLHNHSFVGCVNPQWALAQHQTKLYLLNTTKLSEELFYQILIYDFANFGVLRLSEPAPLFDLAMLALDSPESGWTEEDGPKEGLAEYIVEFLKKKAEMLADYFSLEIDEEGNLIGLPLLIDNYVPPLEGLPIFILRLATEVNWDEEKECFESLSKECAMFYSIRKQYISEESTLSGQQSEVPGSIPNSWKWTVEHIVYKALRSHILPPKHFTEDGNILQLANLPDLYKVFERC
B2: DNA mismatch repair protein Mlh1 (Homo sapiens), P40692 (parent)
chain: B1 chain
partner: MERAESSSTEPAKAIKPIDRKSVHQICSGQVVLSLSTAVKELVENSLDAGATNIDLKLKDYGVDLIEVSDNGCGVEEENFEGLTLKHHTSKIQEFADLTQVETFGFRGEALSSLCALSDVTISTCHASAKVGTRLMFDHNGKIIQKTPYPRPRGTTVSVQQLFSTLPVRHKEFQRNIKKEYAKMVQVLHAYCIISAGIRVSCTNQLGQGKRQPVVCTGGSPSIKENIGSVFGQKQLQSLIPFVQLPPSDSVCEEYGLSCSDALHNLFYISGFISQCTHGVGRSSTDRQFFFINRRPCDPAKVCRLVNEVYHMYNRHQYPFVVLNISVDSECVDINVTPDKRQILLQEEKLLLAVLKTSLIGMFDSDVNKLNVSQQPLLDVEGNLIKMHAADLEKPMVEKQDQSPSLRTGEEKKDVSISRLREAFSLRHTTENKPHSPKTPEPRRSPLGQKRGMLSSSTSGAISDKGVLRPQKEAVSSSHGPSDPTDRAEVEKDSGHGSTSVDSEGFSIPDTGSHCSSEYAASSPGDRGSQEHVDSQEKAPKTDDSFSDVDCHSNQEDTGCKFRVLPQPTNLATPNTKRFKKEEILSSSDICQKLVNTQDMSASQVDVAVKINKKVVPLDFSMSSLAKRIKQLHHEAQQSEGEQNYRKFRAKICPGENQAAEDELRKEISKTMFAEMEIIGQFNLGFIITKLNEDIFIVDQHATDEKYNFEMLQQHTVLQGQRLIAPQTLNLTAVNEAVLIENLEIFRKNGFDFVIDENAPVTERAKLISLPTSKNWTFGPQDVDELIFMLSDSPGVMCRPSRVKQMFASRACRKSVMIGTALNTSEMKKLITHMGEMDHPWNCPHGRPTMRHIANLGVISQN

Variants of: B1
Conditions: with exo1_human EXO1, Q9UQ84

| Variant | effect of a mutation on the interaction |
| --- | --- |
| P28L | disrupting interaction strength |
| C77Y | disrupting interaction strength |
| I32V | with no effect |
| I68N | disrupting interaction strength |
| S44F | disrupting interaction strength |
| I107R | disrupting interaction strength |
| M35R | disrupting interaction strength |
| G67R | disrupting interaction strength |

The next lines start with the values.

| effect of a mutation on the interaction | Variant |
| --- | --- |
| with no effect | R217C |
| with no effect | V326A |
| disrupting interaction strength | G244D |
| with no effect | R265H |
| disrupting interaction strength | A128P |
| with no effect | S406N |
| with no effect | I219V |
| with no effect | I219L |
| disrupting interaction strength | T117M |
| disrupting interaction strength | T117R |
| disrupting interaction strength | V185G |
| with no effect | V213M |

Variants of: B2
Conditions: with pms2_human PMS2, P54278

| Variant | effect of a mutation on the interaction |
| --- | --- |
| G67R | with no effect |
| M35R | with no effect |
| S44F | with no effect |
| I107R | with no effect |
| C77Y | with no effect |
| I68N | with no effect |
| P28L | with no effect |

The next lines start with the values.

| effect of a mutation on the interaction | Variant |
| --- | --- |
| with no effect | G244D |
| with no effect | T117M |
| with no effect | T117R |
| with no effect | V326A |
| with no effect | V185G |
| with no effect | A128P |

Variants of: B2
Conditions: with pms2_human PMS2, P54278
Remark: another data set of the same source

| Variant | effect of a mutation on the interaction |
| --- | --- |
| G67R | disrupting interaction strength |
| M35R | disrupting interaction strength |
| S44F | disrupting interaction strength |
| I107R | disrupting interaction strength |
| C77Y | disrupting interaction strength |
| I32V | with no effect |
| I68N | disrupting interaction strength |
| P28L | disrupting interaction strength |

The remaining lines, values ahead:

| effect of a mutation on the interaction | Variant |
| --- | --- |
| disrupting interaction strength | G244D |
| with no effect | R217C |
| disrupting interaction strength | T117M |
| disrupting interaction strength | T117R |
| with no effect | S406N |
| with no effect | R265H |
| with no effect | V213M |
| disrupting interaction strength | V185G |
| disrupting interaction strength | A128P |
| with no effect | I219L |
| with no effect | I219V |

Variants of: B2
Conditions: with pms2_human PMS2, P54278
Remark: another data set of the same source

| effect of a mutation on the interaction | Variant |
| --- | --- |
| decreasing interaction strength | C77Y |
